For this experiment, the target named is SARS-CoV-2 spike protein receptor binding domain (RBD) (SARS-CoV-2) (UniProt P0DTC2). The experiment in a line: ELISA. (In general: An ELISA detects its analyte on a solid surface through an enzyme-linked reagent.)

The IC50 is the concentration that inhibits the measured activity by half. Lower therefore signals greater potency in that assay.

“AZD7442 (combination of AZD8895 and AZD1061)”: the IC50 was 0.065 µg/mL.

The values are drawn from paper PMC8939769.
